Assay results as given in the supplement of paper PMC7125110.
± gives the standard error. Variants at the floor of the assay were thinned out.

B1: glmS ribozyme (parent)
chain: AUAAAAGCGCCAGAACUACAGAAAUGUAGUUGACGAGGAGGAGGUUUAUCGAAUUUUCGGCGGAUGCCUCCAAA

How the values were obtained:
Conditions in all cases: with glucosamine-6-phosphate
glucosamine-6-phosphate [1] = variants of: B1; assay: self-cleavage kobs at 160 uM GlcN6P; higher = faster cleavage; RNA array
Outline: (§1)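 Weighted Michaelis–Menten fits across concentrations supplied kcat and KM, based on kobs from one- or two-exponential decay fits to normalised per-tile medians. The data came from barcoded ribozyme variants transcribed in situ by E. coli RNA polymerase on sequenced MiSeq chips and tracked at 37 °C by a hybridised Cy3 probe. Glucosamine-6-phosphate (40 μM to 10 mM) in HEPES/KCl/Mg(OAc)2 buffer was flowed in.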

glucosamine-6-phosphate [2] = variants of: B1; assay: self-cleavage kobs at 640 uM GlcN6P; higher = faster cleavage; RNA array
Outline: as §1

glucosamine-6-phosphate [3] = variants of: B1; assay: self-cleavage kobs at 2500 uM GlcN6P; higher = faster cleavage; RNA array
Outline: as §1

glucosamine-6-phosphate [4] = variants of: B1; assay: self-cleavage kobs at 10000 uM GlcN6P; higher = faster cleavage; RNA array
Outline: as §1

Variant | self-cleavage kobs at 160 uM GlcN6P (glucosamine-6-phosphate [1]) [s⁻¹] | self-cleavage kobs at 640 uM GlcN6P (glucosamine-6-phosphate [2]) [s⁻¹] | self-cleavage kobs at 2500 uM GlcN6P (glucosamine-6-phosphate [3]) [s⁻¹] | self-cleavage kobs at 10000 uM GlcN6P (glucosamine-6-phosphate [4]) [s⁻¹]
AUAAAAGCCCCAGAACUACAGAAAUGUAAUUGACGAGGAGGAGGUUUAUCUAAUUUUCGGCGGAUGCCUCCAAA | < 1e-05 | < 1e-05 | < 1e-05 | –
AUAAAAGCGCCAGAACUACAGAAAUGUAGUUGACGAGGAGGAGGUUUAUCCAAUUUUAGGCGGAUGCCUCCAAA | < 1e-05 | < 1e-05 | < 1e-05 | –
AUAAAAGCGCCAGAACUACAGAAAUGUAGUUGACGAGGAGGAGGUUUAUCGACUUUUCGUCGGUGGCCUCCAAA | < 1e-05 | < 1e-05 | – | –
AUAAAAGCGCCAGAACUACAGAAAUGUAGUUGACGAGGAGUAGGUUUAUCCAAUUUUCGGCAGAUGCUUCCAAA | < 1e-05 | < 1e-05 | < 1e-05 | –
AUAAAAGCGCCAGAACUACAGAAAUGUAGUUGACGAGUAGGAGCUUUAUCGAAUUCGCGGCGGAUGCCUUCAAA | < 1e-05 | – | < 1e-05 | –
AUAAAAGCGCCAGAACUACAGAAAUGUAGUUGACGAGGAGGAGGUUCAUCUAAUUUUCGGCGGAUGCUUCCAAA | < 1e-05 | – | < 1e-05 | –
AUAAAAGCGCCAGAACUACAGAAAUGUAGUUGACGAGGAUGAGGUUUAUCUAAUUUUUGGCGGAUGCCUCCAAA | < 1e-05 | – | – | –
AUAAAAGAGCCAGAACUACAGAAAUGUAGUUGACGAGGAGGAGGUUUAUCGAUUCUUUGGCGGAUGCCCCCAAA | < 1e-05 | – | – | –
AUAAAAGCGCCAGAACUACAGAAAUGUAGUUGACGAGGAGGAGGUUUAUAGAAUUUUCGGCGGAUGCCUGCAAA | 0.001 ± 0.00045 | 7.68e-05 ± 1.2e-05 | 6.7e-05 ± 8.5e-06 | –
AUAAAAGUGCCAGAACUACAGAAAUGUAGUUGACGAGGAGGAGGUUUAUCGAAUUUUCUGCGCAUGCCUCCAAA | < 1e-05 | < 1e-05 | < 1e-05 | –
AUAAAAGCGCCAGAACUACAGAAAUGUAGAUGACGAGGGGGAGGUUUGUCGAAUUUUCGGUGGAUGCCUCCAAA | < 1e-05 | – | < 1e-05 | –
AUAAAAGCGCCAGAACUACAGAAAUGUAGUUGACGAGAAGGAGGUUUAUCGAAUUUUCGGCGGGUGCCUCCAAA | < 1e-05 | – | – | –
AUAAAAGCGCCAGAAGUACAGAAAUGUAGUUGACGAGGAGGAGCUUUAUCGAAUUUUCGGCGGAUGCCUCCAAA | < 1e-05 | < 1e-05 | – | –
AUAAAAGCGCCAUAACUACAGAAAUGUAAUUGACGAGGAGGAGGUUUAUCGAAUUUUCGGCGGAUCCCUCCAAA | < 1e-05 | – | – | –
AUAAAAGCGCCAGAACUACAGAAAUGUAGUUGACGAGGAGGAUGUUUAUCGAAUUUUCUGCGGAUGCCUCCAAA | < 1e-05 | < 1e-05 | < 1e-05 | –
AUAAAAGCGCCAGAACUACAGAAAUGUAGUUGACGAGGAGGAUGUUUAUCGAAUUUUCGGCGGAUGCCGCCAAA | < 1e-05 | < 1e-05 | – | < 1e-05
AUAAAAGCGCCAGAACUACAGAAAUGUAGUUUACGAGUAGGAGGUUUAUCGAAGUUUCGGCGGAUGCCUCCAAA | < 1e-05 | – | – | –

Variant | self-cleavage kobs at 160 uM GlcN6P (glucosamine-6-phosphate [1]) [s⁻¹] | self-cleavage kobs at 640 uM GlcN6P (glucosamine-6-phosphate [2]) [s⁻¹] | self-cleavage kobs at 2500 uM GlcN6P (glucosamine-6-phosphate [3]) [s⁻¹] | self-cleavage kobs at 10000 uM GlcN6P (glucosamine-6-phosphate [4]) [s⁻¹]
AUAAAAGCGCCGGAACUACAGAAAUGUAGUUGACUAGGAGGAGGUUUAUCUAAUUUUCGGCGGAUGCGACCAAA | < 1e-05 | < 1e-05 | – | –
AUAAAAGCGCCAGAACUACAGAAAUGUAGGUGACGAGGUGGAGGUUUAUCGAAUUUUCGUCGGAUGCCUCCAAA | < 1e-05 | – | < 1e-05 | –
AUAAAAGCGCCAGAACUACAGAAAUGUAGUUGACGAGGAGGAGGUUUAUCGAAUUUUCGGGGGUAGCUUCCAAA | < 1e-05 | < 1e-05 | – | –
AUAAAAGCGCCAGAACUACAGAAAUGUAGUUGACGAGGAGGAGGUUGAUUGAAUUCUCGGCGGUUGCCUCCAAA | < 1e-05 | < 1e-05 | < 1e-05 | < 1e-05
AUAAAAGCGCCAGAACUACAGAAAUGUAUUUGUCGAGGAGGAGGUUUAUCGAAGUUUCGGCGGAUGCCUCCAAA | < 1e-05 | – | – | –
AUAAAAGGGCCAGAACUACAGAAAUGUAGUUGACGAGGAGGAGGUUUAUCAAAUGUUCGGCGGAUGCCUCCAAA | < 1e-05 | < 1e-05 | – | –
AUAAAAGCGCCAAAACUACAGAAAUGUAGUUGACGAGGAGGAGGUUUAUCGAAUUUUGUGCGGAUGCCUCCAAA | < 1e-05 | – | – | –
AUAAAAGCGCCAGAACUACAGAAAUGUAGUUGACGAGGAGGAGGUUUAUCCAAUUUUCGGCGGAGGCCUCCAAA | < 1e-05 | < 1e-05 | < 1e-05 | –
AUAAAAGCGCCAGAACUACAGAAAUGUAGUUGACGAGGAGGAGUUUUAUCGAAUUUUCGGAGGAUGCCUCCAAA | < 1e-05 | < 1e-05 | < 1e-05 | < 1e-05
AUAAAAUCCGCAGAACUACAGAAAUGUAGUUGACGAGGAGGAGGUUUAUCGACUUUUCGGUGGAUGCCUCCAAA | < 1e-05 | – | < 1e-05 | –
AUAAAAGCGCCAGAACUACAGAAAUGUAGUUGACAAGAGGGAGGUUUAUCGAAUUUUCGGCGCAUGUCUCCAAA | < 1e-05 | – | – | –
AUAAACGAGCCAGAACUACAGAAAUGUAGUUGACGAGGAGGAGGUUUAUCGAAUUUUCGGCGGAUGACUCCAAA | < 1e-05 | < 1e-05 | < 1e-05 | < 1e-05
AUAAAAGCGCCAGAACUACAGAAAUGUAGUUGACGCGGAGGAGGUGUAUCGGAUUUUCGUCGGAUGCCUCCAAA | < 1e-05 | < 1e-05 | < 1e-05 | –
AUAAAAGCGCCAGAAGUACAGAAAUGUAGUUGACGAGAAGGAGGUUUAUCGAAUUUUCGGCGGAUGCCUCCAAA | < 1e-05 | < 1e-05 | – | < 1e-05
AUAAAAGCGCCAGAACUACAGAAAUGUAGUUGACGAGGAGGAGGUUUAUGGAAUUUUCGUCGGAUGCCUCCAAA | 4.83e-05 ± 1.6e-05 | – | 4.39e-05 ± 1.9e-05 | –
AUAAAAGCGCCAGAACUACAGAAAUGUAGUUGACGAGGAGGAGGUUUAUCGUAUUUUCGCCGGAUGCCUCCAAA | < 1e-05 | < 1e-05 | – | < 1e-05
